Experimental findings from article PMC9268357 (Science (New York, N.y.), 2021) are described below.

For test [1], the target named is prefusion-stabilized OC43 S ectodomain trimer (Human coronavirus OC43, isolate not …, UniProt P36334, stabilised). Kind of test: cell-based or functional assay.
Test [2] addresses SARS-CoV-2 or SARS-CoV stem helix peptide (SARS-CoV-2; region stated to be …, biotin). In words: BLI. The note with it: both partners purified.
In test [3] the target is T1, prefusion-stabilized HKU1 S ectodomain trimer (Human coronavirus HKU1, isolate not …, UniProt Q5MQD0, stabilised). Kind of test: ELISA. As to conditions: both partners purified. For orientation: In an ELISA, binding on a coated surface is turned into a signal by an enzyme label.
The target in test [4] is T1, prefusion-stabilized HKU1 S ectodomain …. Kind of test: SPR; S2P6 Fab fragment and S glycoproteins (fig. S1, G and H). As to conditions: both partners purified. (Surface plasmon resonance follows binding to a sensor surface in real time, without labels.)

The term Kd denotes the free concentration of one partner at which half of the binding sites on the other are occupied at equilibrium, for simple one-to-one binding. Read a high Kd as a looser complex.

B1: S2P6 monoclonal antibody (antibody, V domains shown)
VH: EVQLVQSGAEVKKPGASVKVSCKASGYTFTSQYMHWVRQAPGQGLEWIGIINPSGVHTSYAQKFQGRVTLTRDTSTSTLYMELSSLRSEDTAVYYCARGSPKGAFDYWGQGTLVTVSS
VL: not shown
notes: also called S2P6 mAb; S2P6 IgG; copies: 2 + 2
Turning to B1, the “neutralization of VSV pseudotyped with OC43 S, IC50” value in test [1] was found to be 1.3 µg/mL. Besides, the binding result in test [2] and in test [3] was “binds” each time.

B2: S2P6 Fab fragment (Fab, V domains shown)
VH: EVQLVQSGAEVKKPGASVKVSCKASGYTFTSQYMHWVRQAPGQGLEWIGIINPSGVHTSYAQKFQGRVTLTRDTSTSTLYMELSSLRSEDTAVYYCARGSPKGAFDYWGQGTLVTVSS
VL: not shown
Molecule B2 displayed a Kd in test [4] of approximately 120 nM.
